Test results published in the nanobody polyreactivity screen of Harvey et al. (2022).

test: yeast display, Sf9 membrane polyspecificity reagent, FACS + sequencing; frameworks hold sequencing errors
In short: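 Galactose-induced (36–48 hours) yeast carrying a synthetic nanobody display library were exposed to 10% biotinylated, detergent-solubilized Sf9 membrane reagent at 4 °C for 1 hour. FACS followed streptavidin microbead enrichment, using low and high (top ~1%) gates for expression (anti-HA) and reagent binding (streptavidin). Colony PCR, MiSeq 2 × 250 sequencing and CDR-length filtering followed. Labels for polyreactivity reflect the gate of origin.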

Sequence	polyreactivity (PSR sort gate)
QVQLVESGGGLVQAGGSLRLSCAASGSIFIYYAMGWYRQAPGKERELVAAISFSGARTYYADSVKGRFTISRDNAKNTVFLQMNSLKPEDTAVYYCNVEIGTGDYDYWGQGTQVTVSS	low polyreactivity
QVQLVESGGGLVQAGGSLRLSCAASGSIFKANAMGWYRQAPGKESELVATITSSGTRTYYADSVKGRFTISRDNAKNTVYLQMNSLKPEDTAVYYCNARAYPYQRGRYGYWGQGTQVTVSS	high polyreactivity
QVQLVESGGGLVQAGGSLRLSCAASGSIFKEYAMGWYRQAPGKERELVATISWSGGSTYYADSVKGRFTISRDNAKNTVYLQMNSLKPEDTAVYYCNKRTPWWYVVRYDYWGQGTQVTVSS	high polyreactivity
QVQLVESGGGLVQAGGSLRLSCAASGSIFKGNAMGWYRQAPGTERELVASITRSVARTYYADSVKGRFTISRDNAKNTVFLLMNSLKAEDTAVYYCAADWYQWGGRYYAPRYYYWGQGTQVTVSS	high polyreactivity
QVQLVESGGGLVQAGGSLRLSCAASGSIFKGYAMGWSRQAPGKERELVASITSSGGSTYYADSVKGRFTISRDNAKNTVYLQMNCLKPEDTAVYYCATDHDSVRVLVSSTSDYDYWGQGTQVTVSS	low polyreactivity
QVQLVESGGGLVQAGGSLRLSCAASGSIFKPYAMGWYRQAPGKERELVAAINRGGTSTYYADSVKGRFTISRDNAKNTVYLQMISLKPEDTAVYYCAAPNRYSVPMYYWGQGTQVTVSS	low polyreactivity
QVQLVESGGGLVQAGGSLRLSCAASGSIFKQYAMGWYRQAPGKERELVARITGSGGSTYYADSVKGRFTISRDNAKNTVYLQLNSLKPEDTAVYYCANKRYARSSGGYDYWGQGTQVTVSS	low polyreactivity
QVQLVESGGGLVQAGGSLRLSCAASGSIFKQYAMGWYRQAPGKERELVARITGSGGSTYYADSVKGRFTISRDNAKNTVYLQMNSLKPEDTAVYYCATKRYARSSGGYDYWGQGTQVTVSS	low polyreactivity
QVQLVESGGGLVQAGGSLRLSCAASGSIFKRYAMGWYRHAPGKERELVAAISYSGGSTNYADSVKGRFTISRDNAKNTVYLQMNSLKPEDTAVYYCAKRSTSRGYDYWGQGTQVTVSS	high polyreactivity
QVQLVESGGGLVQAGGSLRLSCAASGSIFKRYAMGWYRQAPGKERELVASISSRGSSTNYADSVKGRFTISRDNAKNTVYLQMNSLKPEDTAVYYCAAEVYRGKYWSTYRGGDYWGQGTQVTVSS	high polyreactivity
QVQLVESGGGLVQAGGSLRLSCAASGSIFKTNAMGWYRQAPGKERELVAAITGSGGSTYYADSVKGRFTISRDNAKNTVYLQMNSLKPEDTAVYYCAKRSYRPILRWSYDYWGQGTQVTVSS	low polyreactivity
QVQLVESGGGLVQAGGSLRLSCAASGSIFKTYAMGWNRQAPGKEREFVARITSSGGRTYYADSVKGRFTISRDNAKNTVYLQMNSLKPEDTAVYYCAKPYPRGYTTYSYDYWGQGTQVTVSS	high polyreactivity
QVQLVESGGGLVQAGGSLRLSCAASGSIFKVYAMGWYRQAPGKEREIVAAITSSDSNTNYADSVKGRFTISRDNEKNTVYLQMNSLKPEDTAVYYCNARIYTRRYVPHYGFNYWGQGTQVTVSS	low polyreactivity
QVQLVESGGGLVQAGGSLRLSCAASGSIFKVYAMGWYRQAPGKERELVATISGSGGSTYYADSVKGRFTISRDNAKKTVYLQMNSLKPEDTAVYYCAADAGYAFAVGGGWVEALYDYWGQGTQVTVSS	low polyreactivity
QVQLVESGGGLVQAGGSLRLSCAASGSIFKWNDMGWYRQSPGKERELVAAITWSGGRTYYADSVKGRFTISRDNAKNTVYLQMNSLKPEDTAVYYCAATQYRSDGWRYDYWGQGTQVTVSS	high polyreactivity
QVQLVESGGGLVQAGGSLRLSCAASGSIFKYNAMGWYRQAPGKEREFVAAISSSSGNTYYADSVKGRFTISRDNAKNSVYIQMNSLKPEDTAVYYCAARTFAYRRGWFGYWGQGTQVTVSS	high polyreactivity
QVQLVESGGGLVQAGGSLRLSCAASGSIFKYNAMGWYRQAPGKERELVAAITYSGGSTYYADSVKGRFTISRDNAKNTVYLQMNSLKPEDTAVYYCNAYRRFSAFDYWGQGTQVTVSS	high polyreactivity
QVQLVESGGGLVQAGGSLRLSCAASGSIFKYNAMGWYRQAPGKERELVATITSSGSTTYYADSVKGRFTISRDNAKYTVYLQMNSLKPEDTAVYYCNARYSYRRDYWGQGTEVTVSS	high polyreactivity
QVQLVESGGGLVQAGGSLRLSCAASGSIFKYNTMGWYIQAPGKERELVATISGGGRTYYADSVKGRFTISRDNAKNTVYLQMNSLKPEDTAVYYCAARKRGTFTYDYWGQGTQVTVSS	high polyreactivity
QVQLVESGGGLVQAGGSLRLSCAASGSIFKYNTMGWYRQAPGKERELVAAISSGGRTYYADSVKGRFTISRDNAKNSVYLQMNSLKPEDTAVYYCAARWSFFKTTHRNNYWGQGTQVTVSS	high polyreactivity
QVQLVESGGGLVQAGGSLRLSCAASGSIFKYYAMGWYRQAPGKERELVAAIDWSGGNTYADSVKGRFTISRDNAKNTVYLQMNSLKPEDTAVYYCAADAFAVYRITSYNGSDSWGQGTQVTVSS	high polyreactivity

Sequence	polyreactivity (PSR sort gate)
QVQLVESGGGLVQAGGSLRLSCAASGSIFKYYAMGWYRQAPGKERELVAAISFSGGSTYYADSVKGRFTISRDNAKNTVYLQMNSLKPEDTAVYYCAVLGVWGYGYWGQGTQVTVSS	high polyreactivity
QVQLVESGGGLVQAGGSLRLSCAASGSIFKYYAMGWYRQAPGKERELVAAISSGGRTYYADSVKGRFTISRDNAKNTVYLQMNSLKPEDTAVYYCNRGTVNSWARGYWGQGTQVTVSS	high polyreactivity
QVQLVESGGGLVQAGGSLRLSCAASGSIFKYYAMGWYRQAPGKERELVAAISYSGGRTYYADSVKGRFTISRDNAKNTVYLQMNSLKPEDTAVYYCNAELYPWPGVVRYNYWGQGTQVTVSS	high polyreactivity
QVQLVESGGGLVQAGGSLRLSCAASGSIFKYYAMGWYRQAPGKERELVAAITSGGSTSYADSVKGRFTISRDNAKNTVYLQMNSLKPEDTAVYYCAASGNSYRLRYWWSELDYWGQGTQVTVSS	high polyreactivity
QVQLVESGGGLVQAGGSLRLSCAASGSIFKYYAMGWYRQAPGKERELVAAITWSGGRTNYADSVKGRFTISRDNAKNTVYLQMNSLKPEDTAVYYCNKAYPGLERWYRGLYYWGQGTQVTVSS	high polyreactivity
QVQLVESGGGLVQAGGSLRLSCAASGSIFKYYAMGWYRQAPGKERELVASITSGGSTNYADSVKGRFTISRDNAKNTVYLQMNSLKPEDTAVYYCAADGVRVPRREYDYWGQGTQVTVSS	low polyreactivity
QVQLVESGGGLVQAGGSLRLSCAASGSIFKYYVMGWYRQAPGKERELVAAISSGGGSTYYADSVKGRFTISRDNAKNTVYLQMNSLKPEDTAVYYCNKKYRSRWQGPFDYWGQGTQVTVSS	high polyreactivity
QVQLVESGGGLVQAGGSLRLSCAASGSIFLAKAMGWYRQAPGKERELVAAINYADSVKGRFTISRDNAKNTVYLQMNSLKPEDTAVYYCYSKYDYWGQGTQVTVSS	low polyreactivity
QVQLVESGGGLVQAGGSLRLSCAASGSIFLANAMGWYRQAPGKERELVAAINYADSVKGRFTISRDNAKNTVYLQMNSLKPEDTAVYYCYSKYDYWGQGTQVTVSS	low polyreactivity
QVQLVESGGGLVQAGGSLRLSCAASGSIFLAYAMGWYRQAPGKERELVATISSGGSTNYADSVKGRFTISRDNAKNTVYLQMNSLKPEDTAVYYCIADYSIPGYYWPYDYWGQGTQVTVSS	low polyreactivity
QVQLVESGGGLVQAGGSLRLSCAASGSIFLDYAMGWYRQAPGKERELVAGITISGGSTYYADSVKGRFTISRDNAKNTVYLQMNRLKPEDTAVYYCSKVAPRSSSSQEYYYWGQGTQVTVSS	low polyreactivity
QVQLVESGGGLVQAGGSLRLSCAASGSIFLDYAMGWYRQAPGKERELVAGITISGGSTYYAVSVKGRFTISRDNAKNTVYLQMYSLNREDTAVYYCAKVAPRSSSSQEYYYWGQGTQVTVSS	low polyreactivity
QVQLVESGGGLVQAGGSLRLSCAASGSIFLFYALGWSRQAPGKERELVATINWSGCTTYYADSVKGRFTISRDNAKNTVYFQMNSLKPEDNAFYYCAAYSVYGRYGRTFYYWGQGTQVTVSS	high polyreactivity
QVQLVESGGGLVQAGGSLRLSCAASGSIFLGNAMGWYRQAPGKERELVAAISSITGRTYYAESVKGRFTISRDNAKNTVYLQMNSLKPEDTAVYYCNKVKRSFIVKTDDYWGQGTQVTVSS	high polyreactivity
QVQLVESGGGLVQAGGSLRLSCAASGSIFLHNAMGWYRQAPGKERELVAAISGTGGRTYYADSVKGRFTISRDNAKNTVYLQMNSLKPEDTAVYYCAKTLRDPYRYDYWGQGTQVTVSS	high polyreactivity
QVQLVESGGGLVQAGGSLRLSCAASGSIFLIYAMGGYRPAPGKERELVAGINWSGSRTYYADSVKGRFTISRDNAKNTVYLQMNSLKPEDTAVYYCAARVRRPLYSAYDSWGQGTQVTVSS	low polyreactivity
QVQLVESGGGLVQAGGSLRLSCAASGSIFLKYAMGWYRQAPGKERELVATISRGGSTNYADSVKGRFTISRDNAKNTVYLQMNSLKPEDTAVYYCAAKYGRPYGTYGYKSLLVGDMYYWGQGTQVTVSS	high polyreactivity
QVQLVESGGGLVQAGGSLRLSCAASGSIFLLYAMGWYRQAPGKERELVAAISLSTGNTYYADSVKGRFTISRDNAKNTVYLQMNSLKPEDTAVYYCAAEDYWSAYYWGQGTQVTVSS	high polyreactivity
QVQLVESGGGLVQAGGSLRLSCAASGSIFLPNAMGWYRQAPGKERELVARITSTGSTNYADSVKGRFTISRDNAKNTVYLQMNSLKPEDTAVYYCAADYYPFYVKREQAYPDIPYDSWGQGTQVTVSS	low polyreactivity
QVQLVESGGGLVQAGGSLRLSCAASGSIFLPYAMGWYRQAPGKEREFVAAIRWSTGRTFYADSVKGRVTISRDNAKNTVYLQMNSLKPEDTAVYYCAAKYYDSWYTYRYDYWGQGTQVTVSS	high polyreactivity
